Data: patent publication US10358663B2, “Method of production of 2,4-dihydroxybutyric acid” (ADISSEO FRANCE S.A.S., priority 2010, dated 2019)

Experiments:
Assay type in all cases: biochemical, Metallosphaera sedula
Settings in all cases: other: malate semialdehyde, pH 7.5, 30° C.
[1] = substrate: O=CC[C@H](O)C(=O)O; assay: Malate semialdehyde reductase assay, Ms-SSR N43H
Description: (§1) Test for Malate Semialdehyde Reductase Activity: Reaction: (L)-Malate semialdehyde+NAD(P)H→(L)-2,4-dihydroxybutyric acid+NAD(P)
(§2) The assay mixture contained 200 mM Hepes (pH 7.5), 50 mM KCl, 5 mM MgCl2, 0.24 mM NADH or NADPH, and appropriate amounts of purified enzyme. Reactions were started by adding 10 mM (L)-malate semialdehyde (malate semialdehyde was prepared freshly for each test, see Example 4). Enzymatic assays were carried out at 30° C. in 96-well flat bottomed microtiter plates in a final volume of 250 μL. The reactions were followed by the characteristic absorption of NAD(P)H at 340 nm in a microplate reader (BioRad 680XR).
(§3) Site-directed mutagenesis was carried out using the oligonucleotide pairs listed in Table 8 and the pMs-SSR plasmid as the template. Point mutations to change the amino acid sequences were introduced by PCR (Phusion 1U, HF buffer 20% (v/v), dNTPs 2.5 mM, direct and reverse primers 1 μM each, template plasmid 200 ng, water). When possible, plasmids created by PCR contained new restriction sites (introduced using silent mutations) in addition to the functional mutation to facilitate identification of mutated clones. The PCR products were digested by DpnI at 37° C. for 1 h to remove template DNA, and transformed into NEB 5-alpha competent E. coli cells (NEB). […]

[2] = substrate: O=CC[C@H](O)C(=O)O; assay: Malate semialdehyde reductase assay, Ms-SSR H39R
Description: as §1, §2, §3

[3] = substrate: O=CC[C@H](O)C(=O)O; assay: Malate semialdehyde reductase assay, Ms-SSR H39R N43H
Description: as §1, §2, §3

[4] = substrate: O=CC[C@H](O)C(=O)O; assay: Malate semialdehyde reductase assay, Ms-SSR wild type
Description: as §1, §2

B1: Metallosphaera sedula succinic semialdehyde reductase Ms-SSR variant N43H, SEQ ID NO: 227 (Metallosphaera sedula DSM 5348; N43H) (protein)
chain: MKAAVLHTYKEPLSIEDVNISQPKAGEVKIKVKATGLCHSDVHVFEGKTPVPPPVVAGHEISGIVEEVGPGVTRVKPGDRVISAFIHPCGKCGNCVAGKENLCETFSQVRLKGVMPDGTSRLSKDGKEIRTFLGGGFAEYAIVGENALTRVPEDMDLEKVAVLGCAGLTGYGAISSSKIEPGDTVAVIGVGGVGLSTIQLLRASGAGRIIAVGTKKWKLDRAMELGATDVVNSKEIDPVKAIKEITGGGPQVVIEAGGNEDTIHMALDSVRIGGKVVLVGLPPATAMIPIRVASIVRGGIEVVGNYGGRPRVDMPKLLELVRQGRYDPSRLVTGRFRLEEINEAVKMLEEGEAIRSLIIP
Work on B1 yielded a Km [1] of 2500 µM.

B2: Metallosphaera sedula succinic semialdehyde reductase Ms-SSR variant H39R, SEQ ID NO: 225 (Metallosphaera sedula DSM 5348; H39R) (protein)
chain: MKAAVLHTYKEPLSIEDVNISQPKAGEVKIKVKATGLCRSDVNVFEGKTPVPPPVVAGHEISGIVEEVGPGVTRVKPGDRVISAFIHPCGKCGNCVAGKENLCETFSQVRLKGVMPDGTSRLSKDGKEIRTFLGGGFAEYAIVGENALTRVPEDMDLEKVAVLGCAGLTGYGAISSSKIEPGDTVAVIGVGGVGLSTIQLLRASGAGRIIAVGTKKWKLDRAMELGATDVVNSKEIDPVKAIKEITGGGPQVVIEAGGNEDTIHMALDSVRIGGKVVLVGLPPATAMIPIRVASIVRGGIEVVGNYGGRPRVDMPKLLELVRQGRYDPSRLVTGRFRLEEINEAVKMLEEGEAIRSLIIP
In the case of B2, the Km [2] is reported as 500 µM.

B3: Metallosphaera sedula succinic semialdehyde reductase Ms-SSR variant H39R N43H, SEQ ID NO: 81 (Metallosphaera sedula DSM 5348; H39R/N43H) (protein)
chain: MKAAVLHTYKEPLSIEDVNISQPKAGEVKIKVKATGLCRSDVHVFEGKTPVPPPVVAGHEISGIVEEVGPGVTRVKPGDRVISAFIHPCGKCGNCVAGKENLCETFSQVRLKGVMPDGTSRLSKDGKEIRTFLGGGFAEYAIVGENALTRVPEDMDLEKVAVLGCAGLTGYGAISSSKIEPGDTVAVIGVGGVGLSTIQLLRASGAGRIIAVGTKKWKLDRAMELGATDVVNSKEIDPVKAIKEITGGGPQVVIEAGGNEDTIHMALDSVRIGGKVVLVGLPPATAMIPIRVASIVRGGIEVVGNYGGRPRVDMPKLLELVRQGRYDPSRLVTGRFRLEEINEAVKMLEEGEAIRSLIIP
Protein B3 has a Km [3] of 400 µM.

B4: Metallosphaera sedula succinic semialdehyde reductase Ms-SSR, wild type, SEQ ID NO: 76 (Metallosphaera sedula DSM 5348) (protein)
chain: MKAAVLHTYKEPLSIEDVNISQPKAGEVKIKVKATGLCHSDVNVFEGKTPVPPPVVAGHEISGIVEEVGPGVTRVKPGDRVISAFIHPCGKCGNCVAGKENLCETFSQVRLKGVMPDGTSRLSKDGKEIRTFLGGGFAEYAIVGENALTRVPEDMDLEKVAVLGCAGLTGYGAISSSKIEPGDTVAVIGVGGVGLSTIQLLRASGAGRIIAVGTKKWKLDRAMELGATDVVNSKEIDPVKAIKEITGGGPQVVIEAGGNEDTIHMALDSVRIGGKVVLVGLPPATAMIPIRVASIVRGGIEVVGNYGGRPRVDMPKLLELVRQGRYDPSRLVTGRFRLEEINEAVKMLEEGEAIRSLIIP
With B4 the Km [4] was 1100 µM.
